Assay results reported in US9329180B2, “Preparation of anti-PEG antibody expressing cell and application thereof” (KAOHSIUNG MEDICAL UNIVERSITY, priority 2010, dated 2016).

B1: 15-2 antibody: anti-methoxyl-PEG IgG2b antibody; VH SEQ ID NO: 9, VL SEQ ID NO: 10 (antibody, V domains shown)
VH: EVKLEESGGGLVQPGGSMKLSCVASGFTFSNYWMNWVRQSPEKGLEWVTEIRSKSNNYATHYAESVKGRFTISRDDSKGSVYLQMNNLRAEDTGIYYCSNRYYWGQGTLVTVSA
VL: DIVMTQSHKFMSTSVRDRVTITCKASQDVNTSVAWYQQKPGQSPKLVIYWASTRHTGVPDRFTGSGSGTDFTLTISNVQSEDLADYFCLQYINYPYTFGGGTKLEIKR
modifications: VH domain of 15-2 antibody; VL domain of 15-2 antibody
B2: AGP3 antibody: monoclonal IgM antibody specific to the PEG backbone; VH SEQ ID NO: 1, VL SEQ ID NO: 2 (antibody, V domains shown)
VH: EVQLVESGGGLVKPGGSLKLSCAASGFTFSDYYMYWVRQTPEKRLEWVATISDDGTYTYYPHSVKGRFTISRDSAKNNLYLQLSSLKSEDTAMYYCARNDARGDYWGQGTSVTVSS
VL: DIVLTQAAFSNPVTLGTSASISCRSSKSLLHSNGITYLYWYLQKPGQSPQLLIYQMSNLASGVPDRFSSSGSGTDFTLRISRVEAEDVGVYYCAQNLELFTFGSGTKLEIKR
modifications: VH domain of AGP3 antibody; VL domain of AGP3 antibody

Experiments:
[1] = tested on: Lipo-Dox (liposomal doxorubicin conjugated with CH3O-PEG2K); assay: 3T3/15-2 cell-based or 15-2 antibody-based sandwich ELISA (AGP4-biotin detection); type: binding; details: cell-based versus antibody-based capture
Protocol: (§1) To test whether 3T3/15-2 cell-based or 15-2 antibody-based sandwich ELISA could be used to quantify CH3O-PEG molecules, CH3O-PEG (1K, 2K, 5K, and 20K Da) or Lipo-Dox (liposomal doxorubicin conjugated with CH3O-PEG2K) was added to 3T3/15-2 cell or 15-2 antibody coated 96 well/plates, respectively. Captured mPEG molecules were then quantified by sequential addition of biotinylated AGP4 antibody (AGP4-biotin), streptavidin-conjugated horseradish peroxidase (streptavidin-HRP) and ABTS substrate. […] The sensitivity depended on the length of the PEG chain. CH3O-PEG5K and CH3O-PEG2K could be effectively detected at concentrations as low as 1 nM, respectively.

[2] = as above; type: binding; details: cell-based versus antibody-based capture
Protocol: Anti-methoxyl-PEG cells were used as a platform to establish a sandwich ELISA to quantify all kinds of free methoxyl-PEG molecules. 3T3/15-2 cells were seeded into a 96 wells plate. After that, the methoxyl-PEG was added as an analyte, and then a biotinylated anti-PEG antibody (AGP4-Biotin) was used as a detecting antibody. Finally, streptavidin-HRP was added into the 96 wells plate. After adequate washing, the concentration of methoxyl-PEG was known by observing the color intensity of the matrix coated on the 96 wells plate. With existence of serum, this method can quantify all kinds of free methoxyl-PEG molecules (CH3O-PEG2K and CH3O-PEG5K), and the sensitivity was better than using 3T3/AGP3 platform. Therefore, the sandwich ELISA method using 3T3/15-2 platform can sensitively quantify all kinds of methoxyl-PEG molecules.
as §1, with “CH3O-PEG5K and CH3O-PEG2K could be effectively detected at concentrations as low as 1 nM, respectively.” left out

[3] = Direct binding of PEG5K-biotin, AGP3 antibody-based and 3T3/AGP3 cell-based ELISA; details: streptavidin-HRP and ABTS, 405 nm
Protocol: (§2) To further investigate the potential mechanism that dictates the differential ability in detecting PEG by the cell surface-expressed anti-PEG antibody and coated AGP3 antibody, the present invention compared direct binding of PEG5K-biotin (FIG. 8A) or PEG5K-^131I (FIGS. 8B and 8C) to AGP3 antibody and 3T3/AGP3 cells precoated in 96-well plates.
The 3T3/AGP3 and 3T3/DNS cells (2×10^5 cells/well) were seeded overnight in 96-well plates in culture medium. After extensive washing, captures were fixed by 1% paraformaldehy for 3 min. Plates were blocked with 5% skim milk in PBS for 2 hours at 37° C. PEG5K-biotin was serially diluted and added to the cells at room temperature for 1 h. After washing, streptavidin-HRP and ABTS were sequentially added to the plates to quantify the captured PEG5K-biotin. Color development was measured at 405 nm on a microplate reader. Using this method, the detection limit of PEG5K-biotin in the 3T3/AGP3 cell-based ELISA was 15.6 ng/mL (FIG. 8A).

[4] = Direct binding of PEG5K-131I to AGP3 antibody-coated and 3T3/AGP3 cell-coated plates (γ counter)
Protocol: as §2
The 3T3/AGP3 and 3T3/DNS cells (2×10^5 cells/well) were seeded overnight in 96-well plates in culture medium. After extensive washing, captures were fixed by 1% paraformaldehy for 3 min. Plates were blocked with 5% skim milk in PBS for 2 hours at 37° C. PEG5K-^131I was serially diluted and added to the cells at room temperature for 1 h. After washing, 1N NaOH was added to elute the bound PEG5K-^131I. The radioactivity of these samples was counted on a γ counter.

Row | Molecule | detection of Lipo-Dox, apparent avidity [1] | detection of CH3O-PEG molecules above molecular weight of 2000 Da [2] | detection limit of PEG5K-biotin [3] | signal intensity per well ([4]; 0.74 μCi/mL PEG5K-131I) | signal intensity per well ([4]; 2.22 μCi/mL PEG5K-131I) | signal intensity per well ([4]; 6.67 μCi/mL PEG5K-131I) | signal intensity per well ([4]; 20 μCi/mL PEG5K-131I)
1 | B1 | similar, apparent avidities | Only 3T3/15-2 cell-based sandwich ELISA could detect |  |  |  |  | 
2 | B2 |  |  | failed to detect | 114 | 210 | 245 | 293
